Publication PMC2729104 (Nature immunology, 2009)

Assays:
[1] = target: protease fragment Bb of factor B (from recombinant FB) (human, UniProt P00751 260-764); assay: crystal structure
[2] = target: protease fragment Bb of factor B (from plasma-purified FB) (human, UniProt P00751 260-764); assay: pull-down
Sequence of protease fragment Bb of factor B (from plasma-purified FB) (P00751 260-764): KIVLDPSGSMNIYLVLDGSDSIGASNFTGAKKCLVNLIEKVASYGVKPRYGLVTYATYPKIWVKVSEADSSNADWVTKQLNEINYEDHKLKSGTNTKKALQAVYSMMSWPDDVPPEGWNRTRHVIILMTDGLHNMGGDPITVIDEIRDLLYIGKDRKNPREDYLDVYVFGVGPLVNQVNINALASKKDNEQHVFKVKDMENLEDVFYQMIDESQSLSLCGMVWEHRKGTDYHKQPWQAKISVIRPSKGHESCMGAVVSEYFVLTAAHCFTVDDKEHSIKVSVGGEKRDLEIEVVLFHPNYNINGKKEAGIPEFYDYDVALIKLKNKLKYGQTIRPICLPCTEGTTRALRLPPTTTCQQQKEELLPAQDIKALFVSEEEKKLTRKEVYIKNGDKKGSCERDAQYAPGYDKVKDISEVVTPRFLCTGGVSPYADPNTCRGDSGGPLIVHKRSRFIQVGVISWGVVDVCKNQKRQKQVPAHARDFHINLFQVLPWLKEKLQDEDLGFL

Sequence of protease fragment Bb of factor B (from recombinant FB) (P00751 260-764): as above

B1: SCIN protein with an N-terminal His6 tag (natural protein, Staphylococcus aureus)
chain: STSLPTSNEYQNEKLANELKSLLDELNVNELATGSLNTYYKRTIKISGQKAMYALKSKDFKKMSEAKYQLQKIYNEIDEALKSKY
binding result [1]: binds
binding result [2]: binds
